The record followed here is the supplement of paper PMC12042874.

± gives the uncertainty stated by the source.

This data set in a line: amyloid nucleation score (Sup35N fusion, yeast selection) (log enrichment); library NNK3; higher = more nucleation; inactive = no reads after selection. An outline of the steps: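 In psi-negative yeast, Sup35N fusions carrying peptides of 20 random codons were induced with 100 μM copper sulfate for 24 hours. The cells then grew 7 days at 30°C on medium lacking adenine and uracil, and plasmid inserts from input and output were Illumina-sequenced, excluding sequences with under 100 input reads. Nucleation score is the DiMSum log enrichment of output over input reads, centred on the mode score of non-aggregating sequences.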
On to SVSGRPGEMFSRYYWIYGMY, for which the amyloid nucleation score entry is “inactive”.
MGSGIFCDLFHGVMYCMQVR: the amyloid nucleation score entry was “inactive”.
The value for MAQIRATIFMMMSANVDRYM was “inactive”; that for QNVKIRRGICEEFYRRVQLD was “inactive”.
The value for IHLGMWIRKQFY was 0.985 ± 0.15; that for SSDQRASPGWGFLFHKCAQV was “inactive”.
The value for CDVQKSLGCHTCWGRDWWNR was “inactive”; that for MSGNA was “inactive”; that for DYYTVCQAWIYIGFAILKW was “inactive”.
With CLQSQFLNFE, the amyloid nucleation score entry was “inactive”.
Consider RVTDLFRRLASNYILSSTTA, for which the amyloid nucleation score result is “inactive”.
In the case of CPHMKLFRLLI, the amyloid nucleation score result is “inactive”.
Regarding VRLCRGS, the amyloid nucleation score entry was “inactive”.
In the case of TCMYNMVVGSLVGRWNC, the amyloid nucleation score stood at 1.4 ± 0.13.
With IMMFIPWTSYLKYRIIMDYS, the amyloid nucleation score entry is “inactive”.
In the case of PQRWLSPSYSRIVRM it was 1.39 ± 0.14.
In the case of FCVIMSM it was “inactive”; in that of FQYRLTVEGMSWWTGGW, “inactive”.
In the case of YIGTYLLMSYGDSRPRKEMR it was 1.47 ± 0.088; in that of YWDCGLCVNEMGRFICCLGG, “inactive”.
For IDRGNSNRPCPDFTDCFYGR, the amyloid nucleation score entry is “inactive”.
Regarding GHLFVNTRYFGNFLDSSQVR, the amyloid nucleation score result is “inactive”.
The value for GSVTGAFERYVKKEA was “inactive”; that for VRGTGVVDRLGLGRWDRPEG was “inactive”.
In the case of KPNFEPSLAW it was “inactive”.
The value for RGWYINTVGYRTRAGHNLCG was “inactive”.
RRTWGSMYTKVLSISFLGPG had an amyloid nucleation score of 1.48 ± 0.1.
Take VRFCSEMVCLDYFSNIMHLG: the amyloid nucleation score result was “inactive”.
The value for PCFLTNEDFYMKFTRN was “inactive”.
The value for YMCKCSYVEMTHSA was “inactive”; that for LDNISVLIIFL was 1.34 ± 0.11; that for VRCVGGHSHDHWETVWGVFG was “inactive”.
The value for KASLPNR was “inactive”.
In turn, GLEAPTCPEVFNIGIFSYYH displayed an amyloid nucleation score of 1.45 ± 0.068.
In the case of VLCPFRLFMSNTYLTFAMSC it was “inactive”; in that of FGSCSEVFSYVAYLRGINDF, “inactive”; in that of PDRCFD, “inactive”.
The value for VYRWVC was “inactive”.
On to LYMFHCAFILSIFMFHTPVH, for which the amyloid nucleation score entry is “inactive”.
For the substance SKTPLCMNYFL, the amyloid nucleation score entry was “inactive”.
The value for KIWYLSIYVYFYVYYLDGSL was “inactive”; that for FGVFGEIDIYCGW was “inactive”; that for GVKLVPAAIVGYASLQGL was -0.375 ± 0.83.
The value for GSGRNLSVLVYRLWVDGPTG was “inactive”; that for MVLYYSLILFAHCLKLARHN was “inactive”.
The value for FCSPSFYFGADGDTT was 1.99 ± 0.058; that for YFMVINR was 1.98 ± 0.071; that for LADNYVTCKS was “inactive”.
Turning to TADIESMIMFNGRVPGHLSV, the amyloid nucleation score entry is “inactive”.
Substance RQYRSLRFSVLVYPSHISKG registered an amyloid nucleation score of 0.544 ± 0.17.
In the case of SSACISCYVSMLWYDVLFKV it was 0.345 ± 0.23.
As to RNFRRVSSRF, the amyloid nucleation score entry was “inactive”.
The value for GWLKNNYSTYDTEKKFTATF was “inactive”.
For RDSVNFTSNCCSVGFNTFNS, the amyloid nucleation score was determined as 2.67 ± 0.053.
